Source: patent US20250108114A1

Key:
Experiment in all cases: cell-based or functional assay
[1] = target: BCMA on H929 myeloma cells (human) (UniProt Q02223)
[2] = target: truncated BCMA (amino acid 1 to 98) on SKOV3 cells (human) (UniProt Q02223)
[3] = target: CD19 on GFP/Luc+ Raji cells (human) (UniProt P15391)
[4] = target: truncated CD19 (amino acid 1 to 342) on SKOV3 cells (human) (UniProt P15391)
truncated CD19 (amino acid 1 to 342) on SKOV3 cells (human), sequence (P15391 20-342 limits assumed, form in doubt): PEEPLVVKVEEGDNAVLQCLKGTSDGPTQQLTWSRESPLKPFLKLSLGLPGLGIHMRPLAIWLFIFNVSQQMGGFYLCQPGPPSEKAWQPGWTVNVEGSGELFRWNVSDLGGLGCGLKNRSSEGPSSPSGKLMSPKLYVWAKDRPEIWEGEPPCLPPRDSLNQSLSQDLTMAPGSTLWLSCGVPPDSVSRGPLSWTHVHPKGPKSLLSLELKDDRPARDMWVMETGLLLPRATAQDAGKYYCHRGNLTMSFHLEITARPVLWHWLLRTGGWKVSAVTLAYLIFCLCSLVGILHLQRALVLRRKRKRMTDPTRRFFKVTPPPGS

BCMA on H929 myeloma cells (human), sequence (Q02223 whole entry, the tested form may be a part): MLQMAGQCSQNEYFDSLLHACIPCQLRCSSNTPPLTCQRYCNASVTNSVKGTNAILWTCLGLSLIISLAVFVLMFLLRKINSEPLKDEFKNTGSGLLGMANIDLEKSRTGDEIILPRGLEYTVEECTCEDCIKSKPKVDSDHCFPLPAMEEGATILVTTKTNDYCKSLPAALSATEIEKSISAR
CD19 on GFP/Luc+ Raji cells (human), sequence (P15391 20-556): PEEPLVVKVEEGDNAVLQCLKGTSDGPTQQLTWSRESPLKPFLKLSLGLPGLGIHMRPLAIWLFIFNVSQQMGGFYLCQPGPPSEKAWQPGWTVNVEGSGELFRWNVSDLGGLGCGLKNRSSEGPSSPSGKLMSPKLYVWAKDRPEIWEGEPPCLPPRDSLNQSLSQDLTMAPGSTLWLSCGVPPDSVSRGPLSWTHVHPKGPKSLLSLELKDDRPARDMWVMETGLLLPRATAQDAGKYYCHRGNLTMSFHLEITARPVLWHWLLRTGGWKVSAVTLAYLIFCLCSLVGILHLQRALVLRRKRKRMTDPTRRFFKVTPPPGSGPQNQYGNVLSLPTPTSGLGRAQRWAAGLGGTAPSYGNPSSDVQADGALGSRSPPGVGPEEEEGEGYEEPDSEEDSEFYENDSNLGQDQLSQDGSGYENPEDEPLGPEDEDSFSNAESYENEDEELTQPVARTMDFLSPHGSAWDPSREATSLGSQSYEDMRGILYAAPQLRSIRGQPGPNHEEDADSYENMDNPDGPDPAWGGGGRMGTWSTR
truncated BCMA (amino acid 1 to 98) on SKOV3 cells (human), sequence (Q02223 1-98 limits assumed): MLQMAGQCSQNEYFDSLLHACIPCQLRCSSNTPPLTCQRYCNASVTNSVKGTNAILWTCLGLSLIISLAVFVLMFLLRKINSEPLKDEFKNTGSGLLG

Substance | cytotoxicity, flow cytometry with counting beads, E:T 0.1:1, 24 hours [1] [%] | cytotoxicity, flow cytometry with counting beads, E:T 0.3:1 and 1:1, 24 hours [1] [%] | cytotoxicity, real-time cytotoxicity assay (xCELLigence), E:T 0.3:1 and 0.1:1, after 36 hours of co-culture [2] [%] | Specific cell lysis ratio (at E:T = 3:1), luciferase killing assay [3] [%] | cytotoxicity, real-time cytotoxicity assay (xCELLigence), E:T 0.1:1 (fold against Comparative Example 1C) [4]
anti-BCMA chimeric antigen receptor of Comparative Example 3 (J6M0 scFv, hinge domain of CD8, transmembrane domain of CD8, 4-1BB, signal transduction domain of CD3ζ), on CAR-T cells of Comparative Example 3C (from UniProt P01732 183-206; Q07011 214-255; P20963 52-164) | 74.8 |  |  |  | 
anti-BCMA-NKp30 chimeric antigen receptor of Example 3 (J6M0 scFv, hinge domain of CD28, NKp30 without immunoglobulin-like domain), on CAR-T cells of Example 3C (from UniProt O14931 129-201; P30273 19-86) | 73.5 | 80 to 85 | 100 |  | 
anti-CD19-NKp30 chimeric antigen receptor of Example 1-4 (FMC63 scFv, hinge domain of IgG4, NKp30 without immunoglobulin-like domain), on CAR-T cells of Example 1-4C (from UniProt O14931 129-201; P30273 19-86) |  |  |  | 51 | 
anti-CD19-NKp30 chimeric antigen receptor of Example 1-5 (FMC63 scFv, (EAAAK)3 hinge, NKp30 without immunoglobulin-like domain), on CAR-T cells of Example 1-5C (from UniProt O14931 129-201; P30273 19-86) |  |  |  | 83.6 | > 3
